Here are results for 3 molecules from US20260201033A1 (LTZ THERAPEUTICS, published 2026).

The target in experiment [1] is T1, mouse CLEC5A (R&D Systems, Cat #: 8438-CL-050) (mouse, UniProt Q9R007 26-190, limits assumed).
T1 construct: Bought protein; also called recombinant mouse CLEC5A protein
T1 sequence: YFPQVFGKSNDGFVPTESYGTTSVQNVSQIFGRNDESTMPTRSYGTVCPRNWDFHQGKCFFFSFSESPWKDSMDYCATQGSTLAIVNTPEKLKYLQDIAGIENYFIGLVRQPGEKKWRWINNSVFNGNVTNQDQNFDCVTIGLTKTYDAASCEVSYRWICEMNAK
In words: ELISA, plate coated with mouse CLEC5A. A general note: ELISA stands for enzyme-linked immunosorbent assay.

The target in experiment [2] is T2, Human CLEC5A His Tag protein (ACROBiosystems, Cat #: CLA-H5243) (human, UniProt Q9NY25 28-188, limits assumed).
T2 construct: Bought protein with a His tag; also called recombinant human CLEC5A protein
T2 sequence: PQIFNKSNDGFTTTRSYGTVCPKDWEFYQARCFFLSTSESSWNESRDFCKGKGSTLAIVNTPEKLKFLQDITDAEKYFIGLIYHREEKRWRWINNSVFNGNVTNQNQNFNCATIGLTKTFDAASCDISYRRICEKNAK
In words: ELISA, plate coated with human CLEC5A.

For experiment [3], the target named is T3, Human C-type lectin domain family 5 member A (CLEC5A), endogenous on human monocytes and M0 macrophages (human, UniProt Q9NY25 1-188).
T3 construct: Endogenous CLEC5A on primary human monocytes and monocyte-derived M0 macrophages; also called MDL-1; M0 macrophages (CLEC5A+) cells
T3 sequence: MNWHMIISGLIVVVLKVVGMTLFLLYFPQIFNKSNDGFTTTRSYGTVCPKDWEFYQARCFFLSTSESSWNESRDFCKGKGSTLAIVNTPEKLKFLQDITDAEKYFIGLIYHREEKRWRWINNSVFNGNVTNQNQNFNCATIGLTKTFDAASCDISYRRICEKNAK
Put plainly: flow cytometry on human M0 macrophages, anti-human IgG PE.

In experiment [4] the target is T4, recombinant human CLEC5A, His Tag (ACROBiosystems, Cat #: NC1-H52H4) (human, UniProt Q9NY25 28-188).
T4 construct: Analyte of the BLI assay; Its catalogue number differs from that of the ELISA antigen; also called human CLEC5A (BLI analyte)
T4 sequence: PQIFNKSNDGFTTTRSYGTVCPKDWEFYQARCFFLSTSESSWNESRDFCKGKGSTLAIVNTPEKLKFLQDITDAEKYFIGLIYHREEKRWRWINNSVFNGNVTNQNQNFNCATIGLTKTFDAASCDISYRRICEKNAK
Put plainly: BLI, antibody 10 ug/ml captured on anti-human IgG Fc probe, analyte hCLEC5a; table row hCLEC5a 6.25 nM; all four rows print the same value. (In general: BLI is a label-free optical method that tracks binding on a fibre tip over time.)

Experiment [5] addresses T4, recombinant human CLEC5A, His Tag …. In words: BLI, antibody 10 ug/ml captured on anti-human IgG Fc probe, analyte hCLEC5a; table row hCLEC5a 0.78 nM; all four rows print the same value.
Experiment [6] has the same target. Put plainly: BLI, antibody 10 ug/ml captured on anti-human IgG Fc probe, analyte hCLEC5a; table row hCLEC5a 3.12 nM; all four rows print the same value.
Experiment [7] has the same target. In words: BLI, antibody 10 ug/ml captured on anti-human IgG Fc probe, analyte hCLEC5a; table row hCLEC5a 1.56 nM; all four rows print the same value.

B1: 6A5, chimeric rabbit/human IgG1 anti-CLEC5A antibody (Fc-silenced) (antibody, V domains shown)
VH: QQQLEESGGGLVKPGGTLTLTCTASGFSFSSSYYMCWVRQAPGKGLELIACIYSSSGRTWYATWVNGRFTISRSTSLNTVDLKMTSLTAADTATYFCARSYAGYGGYGYAYFNLWGPGTLVTVSS
VL: DIVMTQTPASVEAGVGGTVTIKCQASEDIYSSLAWYQQKAGQRPKLLIYDASTLASGVPSRFKGSGSGTEYTLTISGVQPDDAATYYCQNYYDSTGSGYGAAFGGGTEVVVK
notes: also called ch6A5
B1: the results for the half-maximal effective concentration (EC50) in experiment [1], in experiment [2] and in experiment [3] were 0.12 nM, 0.31 nM and 9.8 nM, respectively.

B2: 14A2, chimeric rabbit/human IgG1 anti-CLEC5A antibody (Fc-silenced) (antibody, V domains shown)
VH: QSLEESGGGLVKPEGSLTLTCKASGFTLSSYYYMCWVRQAPGKGLEWIACIYAGSSGTTVYASWAKGRFTISKTSSTTVTLQMTSLTAADTATYLCARKLGDVGYGHTTYFNLWGPGTLVTVSS
VL: ALVMTQTPSSVSAAVGGTVTIKCQASQNIYSTLAWYQQKPGQPPKLLMFDASDLASGVPSRFKGSGSGTEYTLTISDLEPADAATYFCQTYYDSGSDDLNAFGGGTEVVVK
notes: also called ch14A2
On to B2, for which the EC50 (usually the midpoint of the concentration-response curve) in experiment [1] stood at 0.184 nM; in experiment [3], 3.99 nM.

B3: 3A7, chimeric rabbit/human IgG1 anti-CLEC5A antibody (Fc-silenced) (antibody, V domains shown)
VH: QSLEESGGDLVKPGASLTLTCTASGFSFSGMYWICWVRQAPGKGLEWIACIYTGSSTTGYASWAKGRFTISKTSSTTVTLQMTSLTAADTATHFCASPYGDSSHYRGLNLWGPGTLVTVSS
VL: AVVMTQTPASVEAAVGGTVTINCQASQRINNYLSWFQQKPGQPPKLLIYGAATLASGVPSRFKGSGSGTEYTLTISDLEPADAATYYCQCTYGIPSSNYGFGGGTEVVVK
notes: also called ch3A7
As for B3, the Kd in experiment [4], in experiment [5], in experiment [6] and in experiment [7] was 0.0631 nM throughout. For the same molecule, the off-rate (koff) in experiment [4], in experiment [5], in experiment [6] and in experiment [7] was 8.96e-05 s⁻¹ in each case. For the same molecule, the association rate constant (kon) in experiment [4], in experiment [5], in experiment [6] and in experiment [7] was 1.42e+06 M⁻¹ s⁻¹ each time. Further, the 50% effective concentration (EC50) in experiment [2] is 0.71 nM; in experiment [3], 0.96 nM.
